± gives the uncertainty stated by the source.

This data set is described as follows: abundance fitness (aPCA) (normalised: wild type 0, dead -1); higher = more abundant; growth selection in yeast, the domain comes from the species named. The settings on record: Homo sapiens.
Take “SAFB-like transcription modulator K21P, Q9NWH9”: the abundance fitness was -0.312 ± 0.057.
With “SAFB-like transcription modulator K21Q, Q9NWH9” the figure was -0.336 ± 0.052; with “SAFB-like transcription modulator K21S, Q9NWH9”, -0.198 ± 0.056; with “SAFB-like transcription modulator K21T, Q9NWH9”, -0.355 ± 0.064.
With “SAFB-like transcription modulator K21V, Q9NWH9” the figure was -0.375 ± 0.04.
With “SAFB-like transcription modulator K21W, Q9NWH9” the figure was -0.982 ± 0.12; with “SAFB-like transcription modulator K21Y, Q9NWH9”, -0.667 ± 0.076.
Substance “SAFB-like transcription modulator K31A, Q9NWH9” yielded an abundance fitness of -0.352 ± 0.049.
As to “SAFB-like transcription modulator K31C, Q9NWH9”, the abundance fitness was -0.223 ± 0.06.
With “SAFB-like transcription modulator K31E, Q9NWH9” the figure was -0.219 ± 0.062; with “SAFB-like transcription modulator K31F, Q9NWH9”, -0.288 ± 0.037.
On to “SAFB-like transcription modulator K31G, Q9NWH9”, for which the abundance fitness is -0.859 ± 0.038.
With “SAFB-like transcription modulator K31H, Q9NWH9” the figure was -0.102 ± 0.083; with “SAFB-like transcription modulator K31I, Q9NWH9”, 0.131 ± 0.064; with “SAFB-like transcription modulator K31L, Q9NWH9”, -0.155 ± 0.042.
With “SAFB-like transcription modulator K31M, Q9NWH9” the figure was -0.241 ± 0.068; with “SAFB-like transcription modulator K31N, Q9NWH9”, -0.629 ± 0.075; with “SAFB-like transcription modulator K31P, Q9NWH9”, -1.16 ± 0.075.
Turning to “SAFB-like transcription modulator K31Q, Q9NWH9”, the abundance fitness was -0.069 ± 0.075.
With “SAFB-like transcription modulator K31R, Q9NWH9” the figure was -0.184 ± 0.047; with “SAFB-like transcription modulator K31S, Q9NWH9”, -0.613 ± 0.061; with “SAFB-like transcription modulator K31T, Q9NWH9”, -0.143 ± 0.043.
With “SAFB-like transcription modulator K31V, Q9NWH9” the figure was -0.056 ± 0.053; with “SAFB-like transcription modulator K31W, Q9NWH9”, -0.237 ± 0.053.
With “SAFB-like transcription modulator K31Y, Q9NWH9” the figure was -0.213 ± 0.075; with “SAFB-like transcription modulator K35A, Q9NWH9”, -0.08 ± 0.072.
“SAFB-like transcription modulator K35C, Q9NWH9” displayed an abundance fitness of -0.528 ± 0.23.
With “SAFB-like transcription modulator K35D, Q9NWH9” the figure was -0.046 ± 0.097; with “SAFB-like transcription modulator K35E, Q9NWH9”, -0.013 ± 0.083; with “SAFB-like transcription modulator K35F, Q9NWH9”, -0.267 ± 0.17.
With “SAFB-like transcription modulator K35G, Q9NWH9” the figure was 0.023 ± 0.051; with “SAFB-like transcription modulator K35I, Q9NWH9”, -0.067 ± 0.037; with “SAFB-like transcription modulator K35L, Q9NWH9”, -0.44 ± 0.11.
With “SAFB-like transcription modulator K35M, Q9NWH9” the figure was -0.035 ± 0.079.
The substance “SAFB-like transcription modulator K35P, Q9NWH9” came in with an abundance fitness of -0.943 ± 0.14.
The substance “SAFB-like transcription modulator K35Q, Q9NWH9” returned an abundance fitness of 0.052 ± 0.053.
With “SAFB-like transcription modulator K35R, Q9NWH9” the figure was -0.023 ± 0.041.
With “SAFB-like transcription modulator K35S, Q9NWH9” the figure was -0.034 ± 0.07; with “SAFB-like transcription modulator K35T, Q9NWH9”, -0.474 ± 0.13.
With “SAFB-like transcription modulator K35V, Q9NWH9” the figure was -0.11 ± 0.042; with “SAFB-like transcription modulator K35W, Q9NWH9”, -0.163 ± 0.077; with “SAFB-like transcription modulator K35Y, Q9NWH9”, -0.086 ± 0.37.
Substance “SAFB-like transcription modulator K45A, Q9NWH9” registered an abundance fitness of -0.224 ± 0.068.
For the substance “SAFB-like transcription modulator K45C, Q9NWH9”, the abundance fitness was -0.617 ± 0.052.
With “SAFB-like transcription modulator K45D, Q9NWH9” the figure was -0.208 ± 0.037; with “SAFB-like transcription modulator K45E, Q9NWH9”, -0.096 ± 0.038.
With “SAFB-like transcription modulator K45F, Q9NWH9”, the abundance fitness was -0.55 ± 0.037.
With “SAFB-like transcription modulator K45G, Q9NWH9” the figure was -0.2 ± 0.066; with “SAFB-like transcription modulator K45H, Q9NWH9”, -0.372 ± 0.12.
With “SAFB-like transcription modulator K45I, Q9NWH9” the figure was -0.513 ± 0.079; with “SAFB-like transcription modulator K45L, Q9NWH9”, -0.731 ± 0.056; with “SAFB-like transcription modulator K45M, Q9NWH9”, -0.325 ± 0.076.
As for “SAFB-like transcription modulator K45N, Q9NWH9”, the abundance fitness was -0.334 ± 0.086.
As for “SAFB-like transcription modulator K45P, Q9NWH9”, the abundance fitness was -0.194 ± 0.077.
Consider “SAFB-like transcription modulator K45Q, Q9NWH9”, for which the abundance fitness is -0.099 ± 0.084.
With “SAFB-like transcription modulator K45S, Q9NWH9” the figure was -0.25 ± 0.055.
With “SAFB-like transcription modulator K45T, Q9NWH9” the figure was -0.095 ± 0.053.
Regarding “SAFB-like transcription modulator K45V, Q9NWH9”, the abundance fitness is -0.399 ± 0.052.
With “SAFB-like transcription modulator K45W, Q9NWH9” the figure was -0.293 ± 0.054; with “SAFB-like transcription modulator K45Y, Q9NWH9”, -0.005 ± 0.085.
Substance “SAFB-like transcription modulator K53A, Q9NWH9” came in with an abundance fitness of 0.006 ± 0.071.
With “SAFB-like transcription modulator K53C, Q9NWH9” the figure was -0.231 ± 0.052; with “SAFB-like transcription modulator K53D, Q9NWH9”, -0.931 ± 0.3.
With “SAFB-like transcription modulator K53E, Q9NWH9” the figure was -0.351 ± 0.099; with “SAFB-like transcription modulator K53F, Q9NWH9”, -0.291 ± 0.06; with “SAFB-like transcription modulator K53G, Q9NWH9”, -0.35 ± 0.089.

Source of the values: the Human Domainome abundance scans (Beltran et al. 2025).
